Drawing on the supplement of paper PMC12338614, this text covers STK11 functional score for 14 variants.

First the molecules themselves.
B1: library; numbered along this chain (parent)
chain: MEVVDPQQLGMFTEGELMSVGMDTFIHRIDSTEVIYQPRRKRAKLIGKYLMGDLLGEGSYGKVKEVLDSETLCRRAVKILKKKKLRRIPNGEANVKKEIQLLRRLRHKNVIQLVDVLYNEEKQKMYMVMEYCVCGMQEMLDSVPEKRFPVCQAHGYFCQLIDGLEYLHSQGIVHKDIKPGNLLLTTGGTLKISDLGVAEALHPFAADDTCRTSQGSPAFQPPEIANGLDTFSGFKVDIWSAGVTLYNITTGLYPFEGDNIYKLFENIGKGSYAIPGDCGPPLSDLLKGMLEYEPAKRFSIRQIRQHSWFRKKHPPAEAPVPIPPSPDTKDRWRSMTVVPYLEDLHGADEDEDLFDIEDDIIYTQDFTVPGQVPEEEASHNGQRRGLPKAVCMNGTEAAQLSTKSRAEGRAPNPARKACSASSKIRRLSACKQQ

± gives the uncertainty stated by the source.

The variants in this data set derive from B1. In words: STK11 functional score (HeLa growth suppression), rescaled enrichment; synonymous median = 1, nonsense median = 0 (normalised score). The settings on record: with HeLa; variant type: missense. In short, it runs like this: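 HeLa cells carrying an AAVS1 landing pad received codon-optimised STK11 libraries made by codon randomisation (POPCode), integrated by Bxb1, with three regions each transfected three times. Integrants that were BFP-negative and mCherry-positive were sorted by FACS 4–5 days after electroporation and then grown for about two weeks. Tiled amplicons from gDNA were sequenced on NextSeq at ~2 million reads per tile. The functional score is a wild-type-corrected log ratio of post- to pre-selection counts, rescaled to the synonymous and nonsense medians, merged across codons and replicate transfections, and given a bootstrapped error.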
Regarding MEVVDPQQLGMFTEGELMSVGMDTFIHRIDSTEVIYQPRRKRAKLIGKYLMGDLLGEGSYGKVKEVLDSETLCRRAVKILKKKKLRRIPNGEANVKKEIQLLRRLRHKNVIQLVDVLYNEEKQKMYMVMEYCVCGMQEMLDSVPEKRFYVCQAHGYFCQLIDGLEYLHSQGIVHKDIKPGNLLLTTGGTLKISDLGVAEALHPFAADDTCRTSQGSPAFQPPEIANGLDTFSGFKVDIWSAGVTLYNITTGLYPFEGDNIYKLFENIGKGSYAIPGDCGPPLSDLLKGMLEYEPAKRFSIRQIRQHSWFRKKHPPAEAPVPIPPSPDTKDRWRSMTVVPYLEDLHGADEDEDLFDIEDDIIYTQDFTVPGQVPEEEASHNGQRRGLPKAVCMNGTEAAQLSTKSRAEGRAPNPARKACSASSKIRRLSACKQQ [P149Y], the STK11 functional score is -0.0036 ± 0.19. MEVVDPQQLGMFTEGELMSVGMDTFIHRIDSTEVIYQPRRKRAKLIGKYLMGDLLGEGSYGKVKEVLDSETLCRRAVKILKKKKLRRIPNGEANVKKEIQLLRRLRHKNVIQLVDVLYNEEKQKMYMVMEYCVCGMQEMLDSVPEKRFRVCQAHGYFCQLIDGLEYLHSQGIVHKDIKPGNLLLTTGGTLKISDLGVAEALHPFAADDTCRTSQGSPAFQPPEIANGLDTFSGFKVDIWSAGVTLYNITTGLYPFEGDNIYKLFENIGKGSYAIPGDCGPPLSDLLKGMLEYEPAKRFSIRQIRQHSWFRKKHPPAEAPVPIPPSPDTKDRWRSMTVVPYLEDLHGADEDEDLFDIEDDIIYTQDFTVPGQVPEEEASHNGQRRGLPKAVCMNGTEAAQLSTKSRAEGRAPNPARKACSASSKIRRLSACKQQ [P149R]: the STK11 functional score was determined as 0.413 ± 0.2. For MEVVDPQQLGMFTEGELMSVGMDTFIHRIDSTEVIYQPRRKRAKLIGKYLMGDLLGEGSYGKVKEVLDSETLCRRAVKILKKKKLRRIPNGEANVKKEIQLLRRLRHKNVIQLVDVLYNEEKQKMYMVMEYCVCGMQEMLDSVPEKRFLVCQAHGYFCQLIDGLEYLHSQGIVHKDIKPGNLLLTTGGTLKISDLGVAEALHPFAADDTCRTSQGSPAFQPPEIANGLDTFSGFKVDIWSAGVTLYNITTGLYPFEGDNIYKLFENIGKGSYAIPGDCGPPLSDLLKGMLEYEPAKRFSIRQIRQHSWFRKKHPPAEAPVPIPPSPDTKDRWRSMTVVPYLEDLHGADEDEDLFDIEDDIIYTQDFTVPGQVPEEEASHNGQRRGLPKAVCMNGTEAAQLSTKSRAEGRAPNPARKACSASSKIRRLSACKQQ [P149L] the value was 0.561 ± 0.1; for MEVVDPQQLGMFTEGELMSVGMDTFIHRIDSTEVIYQPRRKRAKLIGKYLMGDLLGEGSYGKVKEVLDSETLCRRAVKILKKKKLRRIPNGEANVKKEIQLLRRLRHKNVIQLVDVLYNEEKQKMYMVMEYCVCGMQEMLDSVPEKRFSVCQAHGYFCQLIDGLEYLHSQGIVHKDIKPGNLLLTTGGTLKISDLGVAEALHPFAADDTCRTSQGSPAFQPPEIANGLDTFSGFKVDIWSAGVTLYNITTGLYPFEGDNIYKLFENIGKGSYAIPGDCGPPLSDLLKGMLEYEPAKRFSIRQIRQHSWFRKKHPPAEAPVPIPPSPDTKDRWRSMTVVPYLEDLHGADEDEDLFDIEDDIIYTQDFTVPGQVPEEEASHNGQRRGLPKAVCMNGTEAAQLSTKSRAEGRAPNPARKACSASSKIRRLSACKQQ [P149S], 0.988 ± 0.13; for MEVVDPQQLGMFTEGELMSVGMDTFIHRIDSTEVIYQPRRKRAKLIGKYLMGDLLGEGSYGKVKEVLDSETLCRRAVKILKKKKLRRIPNGEANVKKEIQLLRRLRHKNVIQLVDVLYNEEKQKMYMVMEYCVCGMQEMLDSVPEKRFWVCQAHGYFCQLIDGLEYLHSQGIVHKDIKPGNLLLTTGGTLKISDLGVAEALHPFAADDTCRTSQGSPAFQPPEIANGLDTFSGFKVDIWSAGVTLYNITTGLYPFEGDNIYKLFENIGKGSYAIPGDCGPPLSDLLKGMLEYEPAKRFSIRQIRQHSWFRKKHPPAEAPVPIPPSPDTKDRWRSMTVVPYLEDLHGADEDEDLFDIEDDIIYTQDFTVPGQVPEEEASHNGQRRGLPKAVCMNGTEAAQLSTKSRAEGRAPNPARKACSASSKIRRLSACKQQ [P149W], 0.608 ± 0.17. Take MEVVDPQQLGMFTEGELMSVGMDTFIHRIDSTEVIYQPRRKRAKLIGKYLMGDLLGEGSYGKVKEVLDSETLCRRAVKILKKKKLRRIPNGEANVKKEIQLLRRLRHKNVIQLVDVLYNEEKQKMYMVMEYCVCGMQEMLDSVPEKRFNVCQAHGYFCQLIDGLEYLHSQGIVHKDIKPGNLLLTTGGTLKISDLGVAEALHPFAADDTCRTSQGSPAFQPPEIANGLDTFSGFKVDIWSAGVTLYNITTGLYPFEGDNIYKLFENIGKGSYAIPGDCGPPLSDLLKGMLEYEPAKRFSIRQIRQHSWFRKKHPPAEAPVPIPPSPDTKDRWRSMTVVPYLEDLHGADEDEDLFDIEDDIIYTQDFTVPGQVPEEEASHNGQRRGLPKAVCMNGTEAAQLSTKSRAEGRAPNPARKACSASSKIRRLSACKQQ [P149N]: the STK11 functional score amounted to 1.38 ± 0.22.

On to MEVVDPQQLGMFTEGELMSVGMDTFIHRIDSTEVIYQPRRKRAKLIGKYLMGDLLGEGSYGKVKEVLDSETLCRRAVKILKKKKLRRIPNGEANVKKEIQLLRRLRHKNVIQLVDVLYNEEKQKMYMVMEYCVCGMQEMLDSVPEKRFMVCQAHGYFCQLIDGLEYLHSQGIVHKDIKPGNLLLTTGGTLKISDLGVAEALHPFAADDTCRTSQGSPAFQPPEIANGLDTFSGFKVDIWSAGVTLYNITTGLYPFEGDNIYKLFENIGKGSYAIPGDCGPPLSDLLKGMLEYEPAKRFSIRQIRQHSWFRKKHPPAEAPVPIPPSPDTKDRWRSMTVVPYLEDLHGADEDEDLFDIEDDIIYTQDFTVPGQVPEEEASHNGQRRGLPKAVCMNGTEAAQLSTKSRAEGRAPNPARKACSASSKIRRLSACKQQ [P149M], for which the STK11 functional score was 1.02 ± 0.2.

For MEVVDPQQLGMFTEGELMSVGMDTFIHRIDSTEVIYQPRRKRAKLIGKYLMGDLLGEGSYGKVKEVLDSETLCRRAVKILKKKKLRRIPNGEANVKKEIQLLRRLRHKNVIQLVDVLYNEEKQKMYMVMEYCVCGMQEMLDSVPEKRFEVCQAHGYFCQLIDGLEYLHSQGIVHKDIKPGNLLLTTGGTLKISDLGVAEALHPFAADDTCRTSQGSPAFQPPEIANGLDTFSGFKVDIWSAGVTLYNITTGLYPFEGDNIYKLFENIGKGSYAIPGDCGPPLSDLLKGMLEYEPAKRFSIRQIRQHSWFRKKHPPAEAPVPIPPSPDTKDRWRSMTVVPYLEDLHGADEDEDLFDIEDDIIYTQDFTVPGQVPEEEASHNGQRRGLPKAVCMNGTEAAQLSTKSRAEGRAPNPARKACSASSKIRRLSACKQQ [P149E], the STK11 functional score is 1.52 ± 0.19.

As to MEVVDPQQLGMFTEGELMSVGMDTFIHRIDSTEVIYQPRRKRAKLIGKYLMGDLLGEGSYGKVKEVLDSETLCRRAVKILKKKKLRRIPNGEANVKKEIQLLRRLRHKNVIQLVDVLYNEEKQKMYMVMEYCVCGMQEMLDSVPEKRFDVCQAHGYFCQLIDGLEYLHSQGIVHKDIKPGNLLLTTGGTLKISDLGVAEALHPFAADDTCRTSQGSPAFQPPEIANGLDTFSGFKVDIWSAGVTLYNITTGLYPFEGDNIYKLFENIGKGSYAIPGDCGPPLSDLLKGMLEYEPAKRFSIRQIRQHSWFRKKHPPAEAPVPIPPSPDTKDRWRSMTVVPYLEDLHGADEDEDLFDIEDDIIYTQDFTVPGQVPEEEASHNGQRRGLPKAVCMNGTEAAQLSTKSRAEGRAPNPARKACSASSKIRRLSACKQQ [P149D], the STK11 functional score came to 0.598 ± 0.17. For MEVVDPQQLGMFTEGELMSVGMDTFIHRIDSTEVIYQPRRKRAKLIGKYLMGDLLGEGSYGKVKEVLDSETLCRRAVKILKKKKLRRIPNGEANVKKEIQLLRRLRHKNVIQLVDVLYNEEKQKMYMVMEYCVCGMQEMLDSVPEKRFAVCQAHGYFCQLIDGLEYLHSQGIVHKDIKPGNLLLTTGGTLKISDLGVAEALHPFAADDTCRTSQGSPAFQPPEIANGLDTFSGFKVDIWSAGVTLYNITTGLYPFEGDNIYKLFENIGKGSYAIPGDCGPPLSDLLKGMLEYEPAKRFSIRQIRQHSWFRKKHPPAEAPVPIPPSPDTKDRWRSMTVVPYLEDLHGADEDEDLFDIEDDIIYTQDFTVPGQVPEEEASHNGQRRGLPKAVCMNGTEAAQLSTKSRAEGRAPNPARKACSASSKIRRLSACKQQ [P149A] the value was 1.18 ± 0.12; for MEVVDPQQLGMFTEGELMSVGMDTFIHRIDSTEVIYQPRRKRAKLIGKYLMGDLLGEGSYGKVKEVLDSETLCRRAVKILKKKKLRRIPNGEANVKKEIQLLRRLRHKNVIQLVDVLYNEEKQKMYMVMEYCVCGMQEMLDSVPEKRFGVCQAHGYFCQLIDGLEYLHSQGIVHKDIKPGNLLLTTGGTLKISDLGVAEALHPFAADDTCRTSQGSPAFQPPEIANGLDTFSGFKVDIWSAGVTLYNITTGLYPFEGDNIYKLFENIGKGSYAIPGDCGPPLSDLLKGMLEYEPAKRFSIRQIRQHSWFRKKHPPAEAPVPIPPSPDTKDRWRSMTVVPYLEDLHGADEDEDLFDIEDDIIYTQDFTVPGQVPEEEASHNGQRRGLPKAVCMNGTEAAQLSTKSRAEGRAPNPARKACSASSKIRRLSACKQQ [P149G], 0.926 ± 0.23; for MEVVDPQQLGMFTEGELMSVGMDTFIHRIDSTEVIYQPRRKRAKLIGKYLMGDLLGEGSYGKVKEVLDSETLCRRAVKILKKKKLRRIPNGEANVKKEIQLLRRLRHKNVIQLVDVLYNEEKQKMYMVMEYCVCGMQEMLDSVPEKRFCVCQAHGYFCQLIDGLEYLHSQGIVHKDIKPGNLLLTTGGTLKISDLGVAEALHPFAADDTCRTSQGSPAFQPPEIANGLDTFSGFKVDIWSAGVTLYNITTGLYPFEGDNIYKLFENIGKGSYAIPGDCGPPLSDLLKGMLEYEPAKRFSIRQIRQHSWFRKKHPPAEAPVPIPPSPDTKDRWRSMTVVPYLEDLHGADEDEDLFDIEDDIIYTQDFTVPGQVPEEEASHNGQRRGLPKAVCMNGTEAAQLSTKSRAEGRAPNPARKACSASSKIRRLSACKQQ [P149C], 0.957 ± 0.33.

Turning to MEVVDPQQLGMFTEGELMSVGMDTFIHRIDSTEVIYQPRRKRAKLIGKYLMGDLLGEGSYGKVKEVLDSETLCRRAVKILKKKKLRRIPNGEANVKKEIQLLRRLRHKNVIQLVDVLYNEEKQKMYMVMEYCVCGMQEMLDSVPEKRFIVCQAHGYFCQLIDGLEYLHSQGIVHKDIKPGNLLLTTGGTLKISDLGVAEALHPFAADDTCRTSQGSPAFQPPEIANGLDTFSGFKVDIWSAGVTLYNITTGLYPFEGDNIYKLFENIGKGSYAIPGDCGPPLSDLLKGMLEYEPAKRFSIRQIRQHSWFRKKHPPAEAPVPIPPSPDTKDRWRSMTVVPYLEDLHGADEDEDLFDIEDDIIYTQDFTVPGQVPEEEASHNGQRRGLPKAVCMNGTEAAQLSTKSRAEGRAPNPARKACSASSKIRRLSACKQQ [P149I], the STK11 functional score worked out at 0.249 ± 0.1. For MEVVDPQQLGMFTEGELMSVGMDTFIHRIDSTEVIYQPRRKRAKLIGKYLMGDLLGEGSYGKVKEVLDSETLCRRAVKILKKKKLRRIPNGEANVKKEIQLLRRLRHKNVIQLVDVLYNEEKQKMYMVMEYCVCGMQEMLDSVPEKRFVVCQAHGYFCQLIDGLEYLHSQGIVHKDIKPGNLLLTTGGTLKISDLGVAEALHPFAADDTCRTSQGSPAFQPPEIANGLDTFSGFKVDIWSAGVTLYNITTGLYPFEGDNIYKLFENIGKGSYAIPGDCGPPLSDLLKGMLEYEPAKRFSIRQIRQHSWFRKKHPPAEAPVPIPPSPDTKDRWRSMTVVPYLEDLHGADEDEDLFDIEDDIIYTQDFTVPGQVPEEEASHNGQRRGLPKAVCMNGTEAAQLSTKSRAEGRAPNPARKACSASSKIRRLSACKQQ [P149V] the value was 0.694 ± 0.095.
